Where no end group is shown, it is not given here.
Molecular target: T1, pVIP receptor (Sus scrofa, UniProt Q28992)
T1 sequence (Q28992 32-458): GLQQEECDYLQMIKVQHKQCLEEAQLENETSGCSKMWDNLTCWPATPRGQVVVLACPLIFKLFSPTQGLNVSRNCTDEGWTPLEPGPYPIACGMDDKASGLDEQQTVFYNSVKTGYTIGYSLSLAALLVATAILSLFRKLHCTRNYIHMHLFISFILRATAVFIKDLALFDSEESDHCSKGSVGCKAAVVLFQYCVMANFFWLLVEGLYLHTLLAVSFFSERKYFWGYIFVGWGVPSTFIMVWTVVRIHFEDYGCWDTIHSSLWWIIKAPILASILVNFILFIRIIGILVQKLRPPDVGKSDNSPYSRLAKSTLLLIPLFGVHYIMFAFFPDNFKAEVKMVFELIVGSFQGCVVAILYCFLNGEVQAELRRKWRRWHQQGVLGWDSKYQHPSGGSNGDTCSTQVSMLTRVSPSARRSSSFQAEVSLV
Experiment: cAMP assay in 293/VIPR cells expressing the pVIP receptor
Type: cell-based, porcine
Settings: for intracellular [cAMP]: 293/VIPR cells, 45 min at 37° C.
Protocol: Briefly, a double stranded counterpart to Sequence ID#i, externally modified to incorporate convenient restriction sites, was integrated into the pRc/CMV vector and recombinantly expressed in 293 cells. The cDNA transcript included the signal peptide region of the native transcript facilitating proper orientation and integration into the transfected cell membrane. […] The cAMP level was also measured upon exposure of the transfected cells in response to the addition of secretin, and GHRH, two peptides closely related to VIP.
After removing the solution, 0.5 ml of 60% ethanol was added to lyse the cells in each well. An aliquot was taken, dried in vacUo, and the level of cAMP was determined.
Cells were washed twice with the incubation buffer (Dulbecco's modified Eagle's medium containing 0.5 mM 1-methyl-3-isobutylxanthine and 1 mg/ml BSA). […] After removing the buffer, 0.5 ml of 60% ethanol was added to lyse the cells in each well.

| intracellular [cAMP] (hormone concentration 10^-6 M) | intracellular [cAMP] (hormone concentration 10^-7 M) | intracellular [cAMP] (hormone concentration 10^-8 M) | intracellular [cAMP] (hormone concentration 10^-9 M) | intracellular [cAMP] (hormone concentration 10^-10 M) | intracellular [cAMP] (hormone concentration 10^-11 M) | Substance | intracellular cAMP levels upon exposure (in words) (transfected 293 cells expressing the protein of Sequence ID#2) |
| --- | --- | --- | --- | --- | --- | --- | --- |
| 440 pmoles/10^5 cells | 240 pmoles/10^5 cells | 185 pmoles/10^5 cells | 28 pmoles/10^5 cells | < 10 pmoles/10^5 cells | < 10 pmoles/10^5 cells | porcine secretin (HSDGTFTSELSRLRDSARLQRLLQGLV; ends and bridges not checked; UniProt P63298 33-59, looked up) [peptide hormone closely related to VIP, commercially available from Peninsula Laboratories] |  |
| 400 pmoles/10^5 cells | 404 pmoles/10^5 cells | 400 pmoles/10^5 cells | 105 pmoles/10^5 cells | < 10 pmoles/10^5 cells | < 10 pmoles/10^5 cells | GHRH: growth hormone-releasing hormone, a peptide closely related to VIP |  |

| Substance | intracellular [cAMP] (hormone concentration 10^-6 M) | intracellular [cAMP] (hormone concentration 10^-7 M) | intracellular [cAMP] (hormone concentration 10^-8 M) | intracellular [cAMP] (hormone concentration 10^-9 M) | intracellular [cAMP] (hormone concentration 10^-10 M) | intracellular [cAMP] (hormone concentration 10^-11 M) | intracellular cAMP levels upon exposure (in words) (transfected 293 cells expressing the protein of Sequence ID#2) |
| --- | --- | --- | --- | --- | --- | --- | --- |
| porcine vasoactive intestinal polypeptide [VIP] | 420 pmoles/10^5 cells | 440 pmoles/10^5 cells | 404 pmoles/10^5 cells | 64 pmoles/10^5 cells | 15 pmoles/10^5 cells | < 10 pmoles/10^5 cells | intracellular increase in cAMP levels |
